# What was measured:
# soybean EPSPS = assay: kcat gly: enzyme turnover under application conditions, soybean variants; format: biochemical; conditions: for kcat gly: soybean variants
# Method: (§1) A more straight-forward, accurate and meaningful parameter is one in which one rate measurement is performed under presumed in vivo conditions, if known. To establish a set of conditions that mimic those under which the mutated enzyme needs to perform, the concentrations of PEP and S3P were set low (30 uM, subject to the sensitivity of assay conditions) to approach the presumed intracellular concentrations (˜15 uM, the approximate values of KM for both PEP and S3P). Glyphosate is included at 1 mM. The pH is set at 7.0 and ionic strength at 100 mM KCl, also to mimic known in vivo conditions. Ethylene glycol is present at 5% (v/v) to approximate the dielectric constant of intracellular fluid. The parameter is termed “enzyme turnover under application conditions”, which is herein shortened to “kcat gly”. The conventional formatting of the expression “kcat” is not used, to avoid this term being characterized as a standard kinetic constant.
# EPSPS activity was determined by quantifying the phosphate generated from the EPSPS reaction. Release of inorganic phosphate was coupled to its reaction with 2-amino-6-mercapto-7-methylpurine ribonucleoside (MESG), catalyzed by purine nucleoside phosphorylase, according to previously described protocols. To determine the kcat gly, enzyme preparations were normalized to 0.1 mg/ml and four- to six-microliter aliquots of normalized enzyme were added to the wells of a low UV-absorbing 96-well assay plate (Greiner UV-Star). Reactions were started with the addition of 2×147 μl of reaction mixture containing 25 mM Hepes, pH 7.0, 100 mM KCl, 5% ethylene glycol, 30 μM each of PEP and S3P, 0.15 mM MESG, 1.5 U/ml purine nucleoside phosphorylase (Sigma N8264) and 1 mM glyphosate. Absorbance was monitored at 4 sec intervals for 50 sec with a Spectramax plate reader (Molecular Devices). […] Division by the enzyme concentration (0.04 to 0.1 uM, depending on activity) yields “kcat gly” in units of min^−1. […]
# A library was constructed and screened as above. […] The library was constructed, screened and evaluated by the methods described in Examples 1 and 2.
# rice EPSPS = assay: kcat gly: enzyme turnover under application conditions, rice orthologs; format: biochemical, rice (Oryza sativa); conditions: Table 5
# Method: as §1
# EPSPS activity was determined by quantifying the phosphate generated from the EPSPS reaction. Release of inorganic phosphate was coupled to its reaction with 2-amino-6-mercapto-7-methylpurine ribonucleoside (MESG), catalyzed by purine nucleoside phosphorylase, according to previously described protocols. To determine the kcat gly, enzyme preparations were normalized to 0.1 mg/ml and four- to six-microliter aliquots of normalized enzyme were added to the wells of a low UV-absorbing 96-well assay plate (Greiner UV-Star). Reactions were started with the addition of 2×147 μl of reaction mixture containing 25 mM Hepes, pH 7.0, 100 mM KCl, 5% ethylene glycol, 30 μM each of PEP and S3P, 0.15 mM MESG, 1.5 U/ml purine nucleoside phosphorylase (Sigma N8264) and 1 mM glyphosate. Absorbance was monitored at 4 sec intervals for 50 sec with a Spectramax plate reader (Molecular Devices). […] Division by the enzyme concentration (0.04 to 0.1 uM, depending on activity) yields “kcat gly” in units of min^−1.
# Only variable positions are shown. Naturally occurring differences in the rice sequence from the maize sequence are shown. The mutations designed to create rice orthologs of selected maize variants are shown. Genes designed to encode the rice orthologs were synthesized by a commercial provider and expressed and purified as described above.
# Fitness is indicated by the parameter kcat gly, defined in Example 1.
Molecule,kcat gly (rice EPSPS),further results
"Gm F3: soybean EPSPS variant from combinatorial library, SEQ ID NO: 13 (protein, Glycine max) MAAAEKPSTSPEIVLEPIKDFSGTITLPGSKSLSNRILLLAALSEGTTVVDNLLYSEDIHYMLGALRTLGLRVEDDKTTKQAIVEGCGGLFPTSKESKDEINLFCGNAATAMRPLTAAVVAAGGNASYVLDGVPRMRERPIGDLVAGLKQLGADVDCFLGTNCPPVRVNGKGGLPGGKVKLSGSVSSQYLTALLMAAPLALGDVEIEIVDKLISVPYVEMTLKLMERFGVSVEHSGNWDRFLVHGGQKYKSPGNAFVEGDASSASYLLAGAAITGGTITVNGCGTSSLQGDVKFAEVLEKMGAKVTWSENSVTVSGPPRDFSGRKVLRGIDVNMNKMPDVAMTLAVVALFANGPTAIRDVASWRVKESERMIAICTELRKLGATVEEGPDYCVITPPEKLNVTAIDTYGDHRMAMAFSLAACGDVPVTIKDPGCTRKTFPDYFEVLERLTKH",–,kcat gly (soybean EPSPS): 0.938 s⁻¹
"Gm F3-V340A: soybean EPSPS variant Gm F3 with V340A, SEQ ID NO: 14 (protein, Glycine max) MAAAEKPSTSPEIVLEPIKDFSGTITLPGSKSLSNRILLLAALSEGTTVVDNLLYSEDIHYMLGALRTLGLRVEDDKTTKQAIVEGCGGLFPTSKESKDEINLFCGNAATAMRPLTAAVVAAGGNASYVLDGVPRMRERPIGDLVAGLKQLGADVDCFLGTNCPPVRVNGKGGLPGGKVKLSGSVSSQYLTALLMAAPLALGDVEIEIVDKLISVPYVEMTLKLMERFGVSVEHSGNWDRFLVHGGQKYKSPGNAFVEGDASSASYLLAGAAITGGTITVNGCGTSSLQGDVKFAEVLEKMGAKVTWSENSVTVSGPPRDFSGRKVLRGIDVNMNKMPDAAMTLAVVALFANGPTAIRDVASWRVKESERMIAICTELRKLGATVEEGPDYCVITPPEKLNVTAIDTYGDHRMAMAFSLAACGDVPVTIKDPGCTRKTFPDYFEVLERLTKH",–,fitness (kcat gly) compared with Gm F3 (soybean EPSPS): significant fitness improvement
"Gm F3-02-A7: soybean EPSPS variant, SEQ ID NO: 15 (protein, Glycine max) MAAAEKPSTSPEIVLEPIKDFSGTITLPGSKSLSNRILLLAALSEGTTVVDNLLYSEDIHYMLGALRTLGLRVEDDKTTKQAIVEGCGGLFPTSKESKDEINLFCGNAATAMRPLTAAVVAAGGNASYVLDGVPRMRERPIGDLVAGLKQLGADVDCFLGTNCPPVRVNGKGGLPGGKVKLSGSVSSQYLTALLMAAPLALGDVEIEIVDKLISVPYVEMTLKLMERFGVSVEHSGNWDRFLVHGGQKYKSPGNAFVEGDASSASYLLAGAAITGGTITVNGCGTSSLQGDVKFAEVLEKMGAKVTWSENSVTVSGPPRDFSGRKVLRGIDVNMNKMPDAAMTLAVVALFANGPTAIRDVASWRVKESERMIAICTELRKLGATVEEGPDYCVITPPEKLNVTAIDTYGDHRMAMAFSLAACGDVPVTIKDPGCTRKTFPDYFEVLERLTKH",–,kcat gly (soybean EPSPS): 1.34 s⁻¹
"Os D2-67: rice EPSPS ortholog of Zm D2-67, SEQ ID NO: 17 (protein, listed as Oryza sativa) MRKWEEIVLQPIREISGAVQLPGSKSLSNRILLLSALSEGTTVVDNLLNSEDVHYMLEALKALGLSVEHDKVAKRAVVVGCGGRFPVEKDAKGEVQLFCGNAATAMRPLTAAVTAAGGNATYVLDGVPRMRERPIGDLVVGLKQLGADVDCFLGTECPPVRVKGIGGLPGGKVKLSGSISSQYLSALLMAAPLALGDVEIEIIDKLISLPYVEMTLRLMERFGVKAEHSDSWDRFYIKGGQKYESPGNAYVEGDASSASYFLAGAAITGGTVTVQGCGTTSLQGDVKFAEVLEMMGAKVTWTDTSVTVTGPPREPYGKKHLKAVDVNMNKMPDAAMTLAVVALFADGPTAIRDVASWRVKETERMVAIRTELTKLGASVEEGPDYCIITPPPKLNITAIDTYGDHRMAMAFSLAACADVPVTIRDPGCTRKTFPNYFDVLSTFVRN",1.7 s⁻¹,–
"Os D2: rice EPSPS ortholog of Zm D2, SEQ ID NO: 16 (protein, listed as Oryza sativa) MRKWEEIVLQPIREISGAVQLPGSKSLSNRILLLSALSEGTTVVDNLLNSEDVHYMLEALKALGLSVEHDKVAKRAVVVGCGGRFPVEKDAKGEVQLFCGNAATAMRPLTAAVTAAGGNATYVLDGVPRMRERPIGDLVVGLKQLGADVDCFLGTECPPVRVKGIGGLPGGKVKLSGSISSQYLSALLMAAPLALGDVEIEIIDKLISLPYVEMTLRLMERFGVKAEHSDSWDRFYIKGGQKYESPGNAYVEGDASSASYFLAGAAITGGTVTVQGCGTTSLQGDVKFAEVLEMMGAKVTWTDTSVTVTGPPREPYGKKHLKAVDVNMNKMPDAAMTLAVVALFADGPTAIRDVASWRVKETERMVAIRTELTKLGASVEEGPDYCIITPPPKLNITAIDTYGDHRMAMAFSLAACADVPVTIRDPGCTRKTFPNYFDVLSTFVRN",1.48 s⁻¹,–
"Os F3: rice EPSPS ortholog of Zm F3, SEQ ID NO: 18 (protein, listed as Oryza sativa) MAKAEEIVLQPIREISGAVQLPGSKSLSNRILLLSALSEGTTVVDNLLNSEDVHYMLEALKALGLSVEADKVAKRAVVVGCGGKFPVEKDAKEEVQLFCGNAATAMRPLTAAVTAAGGNATYVLDGVPRMRERPIGDLVVGLKQLGADVDCFLGTECPPVRVKGIGGLPGGKVKLSGSISSQYLSALLMAAPLALGDVEIEIIDKLISIPYVEMTLRLMERFGVKAEHSDSWDRFYIKGGQKYKSPGNAYVEGDASSASYFLAGAAITGGTVTVQGCGTTSLQGDVKFAEVLEMMGAKVTWTDTSVTVTGPPREPYGKKHLKAVDVNMNKMPDVAMTLAVVALFADGPTAIRDVASWRVKESERMVAIRTELTKLGASVEEGPDYCIITPPEKLNITAIDTYGDHRMAMAFSLAACADVPVTIRDPGCTRKTFPNYFDVLSTFVRN",0.65 s⁻¹,–
"Os F3-88: rice EPSPS ortholog of Zm F3-88, SEQ ID NO: 19 (protein, listed as Oryza sativa) MAKAEEIVLQPIREISGAVQLPGSKSLSNRILLLSALSEGTTVVDNLLNSEDVGYMLEALKALGLSVEADKVAKRAVVVGCGGKFPVEKDAKEEVQLFCGNAATAMRPLTAAVTAAGGNATYVLDGVPRMRERPIGDLVVGLKQLGADVDCFLGTECPPVRVKGIGGLPGGKVKLSGSISSQYLSALLMAAPLALGDVEIEIIDKLISIPYVEMTLVLMERFGVKAYHSDSWDRFYIKGGQKYKSPGNAYVEGDASSASYFLAGAAITGGTVTVQGCGTTSLQGDVKFAEVLEMMGAAVTWTDTSVTVTGPPREPYGKKHLKAVDVNMNKMPDAAMTLAVVALFADGPTAIRDVASWRVKESERMVAIRTELTKLGASVEEGPDYCIITPPEKLNITAIDTYGDHRMAMAFSLAACADVPVTIRDPGCTAKTFPNYFDVLSTFVRN",1.04 s⁻¹,–

# From patent US20200392528A1, “IMPROVED PLANT EPSP SYNTHASES AND METHODS OF USE” (PIONEER HI-BRED INTERNATIONAL, INC., priority 2017, published 2020)
